For data set [1], the target named is T1, recombinant human IL18-BP (Homo sapiens, UniProt O95998).
T1 construct: purchased R&D systems 119-BP
T1 sequence (O95998 31-194): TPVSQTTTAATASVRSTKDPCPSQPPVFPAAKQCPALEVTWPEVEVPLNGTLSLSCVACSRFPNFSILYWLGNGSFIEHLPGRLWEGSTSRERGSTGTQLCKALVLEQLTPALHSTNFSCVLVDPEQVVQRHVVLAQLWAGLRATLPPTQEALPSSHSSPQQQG
The data set can be described thus: MEL624:TIL assay. Type of data set: cell-based. The following applies: rhIL-18 30 ng/ml + rhIL-18BP 1 μg/ml, vs isotype control. The procedure:
Human MEL624 cells were thawed and grown in DMEM with 10% FBS, 1% Glutamax, 1% Penicillin-Streptomycin Solution and 1% HEPES buffer. The cells were then seeded at 75 k cells/well in a 96 well plate in the assay medium (IMDM with 10% human serum, 1% Glutamax, 1% MEM eagle, 1% Sodium Pyruvate and 1% Penicillin-Streptomycin Solution) and incubated 1 hour in 37° C., 5% CO2 incubator before co-culture with human tumor infiltrating lymphocytes that were previously expanded using known melanoma antigens (TILs). Human TILs were thawed in full TIL media and 75 k cells/well were co-cultured with the MEL624 cells to create an effector: target ratio of 1:1. The co-cultured cells were then treated with rhIL-18 (30 ng/ml) and rhIL-18BP (1 μg/ml) for 30 min in 37° C., 5% CO2 incubator to allow IL-18:IL-18BP complex formation. After 30 minutes, anti-human IL-18BP mAb (ADI-71722, dose titration, 30 μg/ml-0.01 μg/ml, dilution factor of 1:3) or relevant isotype control (hIgG1 30 μg/ml) were added to the co-culture to examine its capability to restore IL-18 activity. Cells and all added solutions were prepared in full assay medium to a final volume of 200 μl/well. Plates were incubated for 24 hours in 37° C., 5% CO2 incubator, after which the supernatant was collected for cytokine secretion evaluation. All tests were done in triplicates and each repeated with TIL four donors. […]

Data set [2] addresses T1, recombinant human IL18-BP. Briefly: CMV recall assay. Type of data set: cell-based. The procedure: Human MEL-624 overexpressing PD-L1 cells were thawed and loaded with CMV pp65 peptide (0.03 μg/ml). The cells were seeded at 100K/well in a 96 well plate and incubated for 30 minutes in 37° C., 5% C02 incubator with a combination rhIL-18 (30 ng/ml, R&D systems, 9124-IL/CF) and rhIL-18BP-Fc chimeric protein (2 μg/ml, R&D systems 119-BP) to allow IL-18+IL-18BP complex formation. After 30 minutes, anti-human IL-18BP (ADI-71722), anti-human PVRIG, anti-human TIGIT (anti-TIGIT), anti-human PD1 (Pembrolizumab) or relevant isotype control (hIgG4) were added to the culture to examine their capability to restore IL-18 activity. All antibodies were added to a final concentration of 10 μg/ml. 30 minutes post incubation with antibodies, thawed CMV-reactive T-cells were added to the culture. Cells and all added solutions were prepared in full IMDM (IMDM media with 10% human serum, 1% Glutamax, 1% MEM eagle, 1% sodium pyruvate, and 1% Penicillin-Streptomycin Solution) to a final volume of 200 μl/well. Plates were incubated for 24 hours in 37° C., 5% C02 incubator, after which the supernatant was collected for IFNγ secretion evaluation. All tests were done in triplicates and each repeated with three donors.
MEL624 cells that overexpress PD-L1 were loaded with CMV peptide pp65. […] CMV-specific T-cells were then added to the culture and IFNg secretion was measured after an overnight incubation.

Data set [3] is described as follows: Fab Tm by dynamic scanning fluorimetry (DSF). Type of data set: physicochemical. The following applies: optimized antibodies. The procedure:
10 μL of 20× Sypro Orange is added to 20 μL of 0.2-1 mg/mL mAb or Fab solution. A RT-PCR instrument (BioRad CFX96 RT PCR) is used to ramp the sample plate temperature from 40 to 95° C. at 0.5° C. increment, with 2 min equilibrate at each temperature. The negative of first derivative for the raw data is used to extract Tm.

Data set [4] deals with T2, human IL18BP-Fc binding to human IL-18 (Homo sapiens, UniProt O95998).
T2 sequence (O95998 31-194): T1 sequence (O95998 31-194)
Briefly: Blocking of hIL18BP-hIL-18 interaction by ELISA, IL18BP plate bound. The following applies: 1 ng/ml human IL-18, compared with clone W19089C. The procedure: This assay was utilized to identify anti-human IL18BP Abs that inhibit the binding interaction between human IL18BP- and its counterpart, human IL-18. […] Human IL18BP-Fc protein was coated on the wells of a high binding plate overnight at 4° C. (1 μg/ml, 100 μl/well volume). Plates were washed three times with PBS-T buffer (1×PBS pH 7.4, 0.05% Tween20) incubated with 250 μL blocking buffer (2.5% skim milk in PBS) at room temperature (RT) for 2 hr. Blocking buffer was removed and plates were washed three times with PBS-T buffer. Plate-bound ligands were incubated with anti-human IL18BP Abs in 1% BSA in PBS buffer two times serially diluted (2.5-0.019 μg/ml, 100 μL/well volume) at RT for 1 h. Plates were washed one time with PBS. Plate-bound ligands were incubated with human IL-18 (cat. 9124-IL, R&D) in 1% BSA in PBS buffer (1 ng/ml, 100 μL/well volume) at RT for 1 h. Plates were washed three times with PBS-T (0.05% Tween20 in PBS). Biotinylated anti-IL18 detection antibody, cat. D045-6, R&D 1:1000 in 1% BSA in PBS buffer was added (100 μL/well). This was incubated at RT for 1 hr, and plates were washed again. Peroxidase Streptavidin, Jackson, cat. 016-030-084 1:1000 in 2.5% skim milk in PBS was added (100 μL/well) for 1 hr at RT. […] The HRP reaction was stopped by adding 50 μL 1N HCl and absorbance signals at 450 nm were read on a luminescence Reader-EnSpire (Perkin Elmar). […]
In general terms: In an ELISA, binding on a coated surface is turned into a signal by an enzyme label.

The test system of data set [5] is MEL624 cells co-cultured with human TILs. Briefly: Killing of MEL624 melanoma cells by human TILs (IncuCyte). The following applies: 10 μg/ml; rhIL-18 50 ng/ml + rhIL-18BP 1 μg/ml; 72 hours. The data set is classed as cell-based. As for the experimental part: The co-culture was monitored for 72 hours using an IncuCyte live cell imaging instrument. […] In the presence of the isotype control antibody (black), IL-18BP abrogated the effects of IL-18, while the anti-IL-18BP antibody (turquoise) was able to completely restore these effects.

We go through one molecule from patent publication US20240425607A1, “IL-18BP ANTAGONIST ANTIBODIES AND THEIR USE IN MONOTHERAPY AND COMBINATION THERAPY IN THE TREATMENT OF CANCER” (Compugen Ltd., priority 2023, published 2024).

Entries after “also recorded” stand apart in the source; their conditions may differ.

B1: ADI-71739: anti-IL18-BP antibody, sequences in FIG. 2K; 66716 lineage (antibody, V domains shown)
VH: QLQLQESGPGLVKPSETLSLTCTVSGGSISSPDYPWGWIRQPPGKGLEWIGSIYYQGATYYNPSLKSRVTISVDTSKNQFSLKLSSVTAADTAVYYCARGPYRQLFDYWGQGTLVTVSS
VL: DIQMTQSPSSVSASVGDRVTITCRASQGISSWLAWYQQKPGKAPKLLIYAASSLQSGVPSRFSGSGSGTDFTLTISSLQPEDFATYYCQQGSVFPYTFGGGTKVEIK
In the case of B1, the “IFNγ secretion from TILs” value in data set [1] was “increase IFNγ secretion from TILs”. The “IFNγ secretion by CMV-reactive T-cells, as mono” value in data set [2] (10 μg/ml, rhIL-18 30 ng/ml + rhIL-18BP 2 μg/ml) is “increase IFNγ secretion from CMV-reactive T-cells; also recorded: increase IFNγ secretion by the T cells”. In addition, the “IFNγ secretion by CMV-reactive T-cells, in combination” value in data set [2] (combined with Pembrolizumab, anti-PVRIG or anti-TIGIT, each 10 μg/ml, vs mono) is on record as “in a more potent manner; also recorded: augmented”. The “Fab Tm (DSF, ° C.)” value in data set [3] is 73.0 °C. Further, in data set [4], the “Blocking effect on binding of human IL18BP to human IL-18” value is given as “superior to Biolegend Ab”. Moreover, in data set [5], the “Killing of melanoma cells by tumor infiltrating lymphocytes” value is “increased killing of melanoma cells”.
